# Experimental data published in the supplement of paper PMC5998384.
# Columns and labels:
# HeLa Kyoto [1] = experiment: solubility in G1/S (NP-40 vs SDS abundance) (log2 ratio); higher = more soluble; settings: cell cycle stage: G1/S
# HeLa Kyoto [2] = experiment: solubility change mitosis vs G1/S (difference of NP-40 vs SDS log2 ratios) (log2 ratio difference); higher = more soluble in mitosis
# 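Throughout, for solubility change mitosis vs G1/S (difference of NP-40 vs SDS log2 ratios): synchronized HeLa Kyoto cells (double thymidine block for G1/S, nocodazole release for mitosis), protein amounts in NP-40 versus SDS lysates quantified by mass spectrometry, three biological replicates.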
# 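Throughout, for solubility in G1/S (NP-40 vs SDS abundance): HeLa Kyoto cells arrested at G1/S by double thymidine block, proteins quantified by TMT10plex mass spectrometry in mild NP-40 versus SDS extracts, three biological replicates.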
Sequence,solubility in G1/S (log2) (HeLa Kyoto [1]),solubility change mitosis (log2) (HeLa Kyoto [2])
MAASRRSQHHHHHHQQQLQPAPGASAPPPPPPPPLSPGLAPGTTPASPTASGLAPFASPRHGLALPEGDGSRDPPDRPRSPDPVDGTSCCSTTSTICTVAAAPVVPAVSTSSAAGVAPNPAGSGSNNSPSSSSSPTSSSSSSPSSPGSSLAESPEAAGVSSTAPLGPGAAGPGTGVPAVSGALRELLEACRNGDVSRVKRLVDAANVNAKDMAGRKSSPLHFAAGFGRKDVVEHLLQMGANVHARDDGGLIPLHNACSFGHAEVVSLLLCQGADPNARDNWNYTPLHEAAIKGKIDVCIVLLQHGADPNIRNTDGKSALDLADPSAKAVLTGEYKKDELLEAARSGNEEKLMALLTPLNVNCHASDGRKSTPLHLAAGYNRVRIVQLLLQHGADVHAKDKGGLVPLHNACSYGHYEVTELLLKHGACVNAMDLWQFTPLHEAASKNRVEVCSLLLSHGADPTLVNCHGKSAVDMAPTPELRERLTYEFKGHSLLQAAREADLAKVKKTLALEIINFKQPQSHETALHCAVASLHPKRKQVTELLLRKGANVNEKNKDFMTPLHVAAERAHNDVMEVLHKHGAKMNALDTLGQTALHRAALAGHLQTCRLLLSYGSDPSIISLQGFTAAQMGNEAVQQILSESTPIRTSDVDYRLLEASKAGDLETVKQLCSSQNVNCRDLEGRHSTPLHFAAGYNRVSVVEYLLHHGADVHAKDKGGLVPLHNACSYGHYEVAELLVRHGASVNVADLWKFTPLHEAAAKGKYEICKLLLKHGADPTKKNRDGNTPLDLVKEGDTDIQDLLRGDAALLDAAKKGCLARVQKLCTPENINCRDTQGRNSTPLHLAAGYNNLEVAEYLLEHGADVNAQDKGGLIPLHNAASYGHVDIAALLIKYNTCVNATDKWAFTPLHEAAQKGRTQLCALLLAHGADPTMKNQEGQTPLDLATADDIRALLIDAMPPEALPTCFKPQATVVSASLISPASTPSCLSAASSIDNLTGPLAELAVGGASNAGDGAAGTERKEGEVAGLDMNISQFLKSLGLEHLRDIFETEQITLDVLADMGHEELKEIGINAYGHRHKLIKGVERLLGGQQGTNPYLTFHCVNQGTILLDLAPEDKEYQSVEEEMQSTIREHRDGGNAGGIFNRYNVIRIQKVVNKKLRERFCHRQKEVSEENHNHHNERMLFHGSPFINAIIHKGFDERHAYIGGMFGAGIYFAENSSKSNQYVYGIGGGTGCPTHKDRSCYICHRQMLFCRVTLGKSFLQFSTMKMAHAPPGHHSVIGRPSVNGLAYAEYVIYRGEQAYPEYLITYQIMKPEAPSQTATAAEQKT [TNKS],0.036,-0.258
MAASRSAGEAGPGGSQGRVVRMKRRGGRGPRRGPAGGGEKALKRLKLAVEEFVHATSEGEAPGGCEGRGAPVSFRPGGRKSRKELRKEKRHLRKARRLQRTAGPEQGPGLGGRSGAEEASGHRQDTEERARPAPSRDPSPPRKPRPSRVKAKATAATAKTRPSAAATAAARKRALLAANEEEDREIRKLERCLGLNKRKKKDGSSSVPLSFARDGLDYILGALESGKNSGLYDSSGEEEEDAGQTLPESDLESDSQDESEEEEEGDVEKEKKAQEAEAQSEDDDEDTEEEQGEEKEKGAQEKRRGKRVRFAEDEEKSENSSEDGDITDKSLCGSGEKYIPPHVRQAEETVDFKKKEELERLKKHVKGLLNRLSEPNMASISGQLEELYMAHSRKDMNDTLTSALMGACVTASAMPSRLMMEHVLLVSILHHTVGIEVGAHFLEAVVRKFDAIYKYGSEGKECDNLFTVIAHLYNFHVVQSLLIFDILKKLIGTFTEKDIELILLMLKNVGFSLRKDDALSLKELITEAQTKASGAGSEFQDQTRIRFMLETMLALKNNDMRKIPGYDPEPVEKLRKLQRALVRNAGSGSETQLRVSWDSVLSAEQTGRWWIVGSAWSGAPMIDNSHHTHLQKQLVGTVSSKILELARKQRMNTDIRRNIFCTIMTSEDFLDAFEKLLKLGLKDQQEREIIHVLMDCCLQEKTYNPFYAFLASKFCEYERRFQMTFQFSIWDKFRDLENLPATNFSNLVHLVAHLLKTKSLSLSILKVVEFSELDKPRVRFLRKVLSILLMETEVEDLSLIFTRVSDNPKLGVLREGLKLFISHFLLKNAQAHRSADEANVLREKADLATKCLQGKASLRM [NOM1],-1,0.759
MAAVAMTPNPVQTLQEEAVCAICLDYFTDPVSIGCGHNFCRVCVTQLWGGEDEEDRDELDREEEEEDGEEEEVEAVGAGAGWDTPMRDEDYEGDMEEEVEEEEEGVFWTSGMSRSSWDNMDYVWEEEDEEEDLDYYLGDMEEEDLRGEDEEDEEEVLEEVEEEDLDPVTPLPPPPAPRRCFTCPQCRKSFPRRSFRPNLQLANMVQVIRQMHPTPGRGSRVTDQGICPKHQEALKLFCEVDEEAICVVCRESRSHKQHSVVPLEEVVQEYKAKLQGHVEPLRKHLEAVQKMKAKEERRVTELKSQMKSELAAVASEFGRLTRFLAEEQAGLERRLREMHEAQLGRAGAAASRLAEQAAQLSRLLAEAQERSQQGGLRLLQDIKETFNRCEEVQLQPPEVWSPDPCQPHSHDFLTDAIVRKMSRMFCQAARVDLTLDPDTAHPALMLSPDRRGVRLAERRQEVADHPKRFSADCCVLGAQGFRSGRHYWEVEVGGRRGWAVGAARESTHHKEKVGPGGSSVGSGDASSSRHHHRRRRLHLPQQPLLQREVWCVGTNGKRYQAQSSTEQTLLSPSEKPRRFGVYLDYEAGRLGFYNAETLAHVHTFSAAFLGERVFPFFRVLSKGTRIKLCP [TRIM41],-0.886,0.254
MAAVGPPQQQVRMAHQQVWAALEVALRVPCLYIIDAIFNSYPDSSQSRFCIVLQIFLRLFGVFASSIVLILSQRSLFKFYTYSSAFLLAATSVLVNYYASLHIDFYGAYNTSAFGIELLPRKGPSLWMALIVLQLTFGIGYVTLLQIHSIYSQLIILDLLVPVIGLITELPLHIRETLLFTSSLILTLNTVFVLAVKLKWFYYSTRYVYLLVRHMYRIYGLQLLMEDTWKRIRFPDILRVFWLTRVTAQATVLMYILRMANETDSFFISWDDFWDLICNLIISGCDSTLTVLGMSAVISSVAHYLGLGILAFIGSTEEDDRRLGFVAPVLFFILALQTGLSGLRPEERLIRLSRNMCLLLTAVLHFIHGMTDPVLMSLSASHVSSFRRHFPVLFVSACLFILPVLLSYVLWHHYALNTWLFAVTAFCVELCLKVIVSLTVYTLFMIDGYYNVLWEKLDDYVYYVRSTGSIIEFIFGVVMFGNGAYTMMFESGSKIRAFMMCLHAYFNIYLQAKNGWKTFMNRRTAVKKINSLPEIKGSRLQEINDVCAICYHEFTTSARITPCNHYFHALCLRKWLYIQDTCPMCHQKVYIEDDIKDNSNVSNNNGFIPPNETPEEAVREAAAESDRELNEDDSTDCDDDVQRERNGVIQHTGAAAEEFNDDTD [RNF139],-0.206,-0.107
MAAWSPAAAAPLLRGIRGLPLHHRMFATQTEGELRVTQILKEKFPRATAIKVTDISGGCGAMYEIKIESEEFKEKRTVQQHQMVNQALKEEIKEMHGLRIFTSVPKR [BOLA3],0.378,0.234
MAEAATGFLEQLKSCIVWSWTYLWTVWFFIVLFLVYILRVPLKINDNLSTVSMFLNTLTPKFYVALTGTSSLISGLILIFEWWYFRKYGTSFIEQVSVSHLRPLLGGVDNNSSNNSNSSNGDSDSNRQSVSECKVWRNPLNLFRGAEYNRYTWVTGREPLTYYDMNLSAQDHQTFFTCDSDHLRPADAIMQKAWRERNPQARISAAHEALEINEIRSRVEVPLIASSTIWEIKLLPKCATAYILLAEEEATTIAEAEKLFKQALKAGDGCYRRSQQLQHHGSQYEAQHRRDTNVLVYIKRRLAMCARRLGRTREAVKMMRDLMKEFPLLSMFNIHENLLEALLELQAYADVQAVLAKYDDISLPKSATICYTAALLKARAVSDKFSPEAASRRGLSTAEMNAVEAIHRAVEFNPHVPKYLLEMKSLILPPEHILKRGDSEAIAYAFFHLAHWKRVEGALNLLHCTWEGTFRMIPYPLEKGHLFYPYPICTETADRELLPSFHEVSVYPKKELPFFILFTAGLCSFTAMLALLTHQFPELMGVFAKAMIDIFCSAEFRDWNCKSIFMRVEDELEIPPAPQSQHFQN [ST7],-0.381,0.0591
MAEAATPGTTATTSGAGAAAATAAAASPTPIPTVTAPSLGAGGGGGGSDGSGGGWTKQVTCRYFMHGVCKEGDNCRYSHDLSDSPYSVVCKYFQRGYCIYGDRCRYEHSKPLKQEEATATELTTKSSLAASSSLSSIVGPLVEMNTGEAESRNSNFATVGAGSEDWVNAIEFVPGQPYCGRTAPSCTEAPLQGSVTKEESEKEQTAVETKKQLCPYAAVGECRYGENCVYLHGDSCDMCGLQVLHPMDAAQRSQHIKSCIEAHEKDMELSFAVQRSKDMVCGICMEVVYEKANPSERRFGILSNCNHTYCLKCIRKWRSAKQFESKIIKSCPECRITSNFVIPSEYWVEEKEEKQKLILKYKEAMSNKACRYFDEGRGSCPFGGNCFYKHAYPDGRREEPQRQKVGTSSRYRAQRRNHFWELIEERENSNPFDNDEEEVVTFELGEMLLMLLAAGGDDELTDSEDEWDLFHDELEDFYDLDL [MKRN1],0.102,-0.322
MAEAGAGLSETVTETTVTVTTEPENRSLTIKLRKRKPEKKVEWTSDTVDNEHMGRRSSKCCCIYEKPRAFGESSTESDEEEEEGCGHTHCVRGHRKGRRRATLGPTPTTPPQPPDPSQPPPGPMQH [PPP1R11],-0.804,0.00513
MAEASFGSSSPVGSLSSEDHDFDPTAEMLVHDYDDERTLEEEEMMDEGKNFSSEIEDLEKEGTMPLEDLLAFYGYEPTIPAVANSSANSSPSELADELPDMTLDKEEIAKDLLSGDDEETQSSADDLTPSVTSHETSDFFPRPLRSNTACDGDKESEVEDVETDSGNSPEDLRKEIMIGLQYQAEIPPYLGEYDGNEKVYENEDQLLWCPDVVLESKVKEYLVETSLRTGSEKIMDRISAGTHTRDNEQALYELLKCNHNIKEAIERYCCNGKASQEGMTAWTEEECRSFEHALMLFGKDFHLIQKNKVRTRTVAECVAFYYMWKKSERYDYFAQQTRFGKKRYNHHPGVTDYMDRLVDETEALGGTVNASALTSNRPEPIPDQQLNILNSFTASDLTALTNSVATVCDPTDVNCLDDSFPPLGNTPRGQVNHVPVVTEELLTLPSNGESDCFNLFETGFYHSELNPMNMCSEESERPAKRLKMGIAVPESFMNEVSVNNLGVDFENHTHHITSAKMAVSVADFGSLSANETNGFISAHALHQHAALHSE [MIER3],0.163,-0.33
MAEASSLGRQSPRVVSCLEHSLCPGEPGLQTTAVVSMGSGDHQFNLAEILSQNYSVRGECEEASRCPDKPKEELEKDFISQSNDMPFDELLALYGYEASDPISDRESEGGDVAPNLPDMTLDKEQIAKDLLSGEEEEETQSSADDLTPSVTSHEASDLFPNRSGSRFLADEDREPGSSASSDTEEDSLPANKCKKEIMVGPQFQADLSNLHLNRHCEKIYENEDQLLWDPSVLPEREVEEFLYRAVKRRWHEMAGPQLPEGEAVKDSEQALYELVKCNFNVEEALRRLRFNVKVIRDGLCAWSEEECRNFEHGFRVHGKNFHLIQANKVRTRSVGECVEYYYLWKKSERYDYFAQQTRLGRRKYVPSGTTDADQDLDGSDPDGPGRPRPEQDTLTGMRTDPLSVDGTAGGLDEPGVASDGLPSSEPGPCSFQQLDESPAVPLSHRPPALADPASYQPAVTAPEPDASPRLAVDFALPKELPLISSHVDLSGDPEETVAPAQVALSVTEFGLIGIGDVNPFLAAHPTCPAPGLHSEPLSHCNVMTC [MIER2],0.172,-0.304
